Columns and labels:
[1] = target: recombinant human Notch3 encompassing aa 40-467 (N3EGF1-11-Fc) (human) (UniProt Q9UM47); assay: ELISA; solid-phase binding assay: 1 μg N3EGF1-11-Fc coated on Maxisorp plates in PBS overnight at 4°C, blocked with PBS/1% BSA; 50 μL conditioned supernatant of transfected HEK293T cells bound 1 h at room temperature; detection with anti-V5 or anti-LTBP-1 and anti-mouse-HRP; IgG1-Fc as control ligand
[2] = target: the molecule itself; assay: scanning for intensely fluorescent targets (SIFT); purified proteins labelled with different fluorescent dyes, pre-cleared at 100,000 g, incubated pairwise in solution; 64 nM LTBP-1 variants, 160 nM N3EGF1-5; confocal single-particle measurement after 24 h

| fold binding over the control ligand IgG-Fc [1] | Molecule | binding result [2] |
| --- | --- | --- |
| 4.9 fold | full-length LTBP-1S (short human isoform of latent TGF-β binding protein 1, 1395 aa) with N-terminal HA tag and C-terminal V5-His tag (natural protein) |  |
|  | LTBP-1ΔN containing a C-terminal V5-His tag (LTBP-1ΔN_V5) (domain or fragment, human, UniProt Q14766-2 528-1395, looked up, fluorescent dye label (dye and site not stated), numbers count on: the short isoform of 1395 aa; source: HEK293E, purified (metal-ion matrix, via His tag); not shown: V5, C-terminal, kept; His, C-terminal, kept) APEASTSSASQVIAPTQVTEINECTVNPDICGAGHCINLPVRYTCICYEGYRFSEQQRKCVDIDECTQVQHLCSQGRCENTEGSFLCICPAGFMASEEGTNCIDVDECLRPDVCGEGHCVNTVGAFRCEYCDSGYRMTQRGRCEDIDECLNPSTCPDEQCVNSPGSYQCVPCTEGFRGWNGQCLDVDECLEPNVCANGDCSNLEGSYMCSCHKGYTRTPDHKHCRDIDECQQGNLCVNGQCKNTEGSFRCTCGQGYQLSAAKDQCEDIDECQHRHLCAHGQCRNTEGSFQCVCDQGYRASGLGDHCEDINECLEDKSVCQRGDCINTAGSYDCTCPDGFQLDDNKTCQDINECEHPGLCGPQGECLNTEGSFHCVCQQGFSISADGRTCEDIDECVNNTVCDSHGFCDNTAGSFRCLCYQGFQAPQDGQGCVDVNECELLSGVCGEAFCENVEGSFLCVCADENQEYSPMTGQCRSRTSTDLDVDVDQPKEEKKECYYNLNDASLCDNVLAPNVTKQECCCTSGVGWGDNCEIFPCPVLGTAEFTEMCPKGKGFVPAGESSSEAGGENYKDADECLLFGQEICKNGFCLNTRPGYECYCKQGTYYDPVKLQCFDMDECQDPSSCIDGQCVNTEGSYNCFCTHPMVLDASEKRCIRPAESNEQIEETDVYQDLCWEHLSDEYVCSRPLVGKQTTYTECCCLYGEAWGMQCALCPLKDSDDYAQLCNIPVTGRRQPYGRDALVDFSEQYTPEADPYFIQDRFLNSFEELQAEECGILNGCENGRCVRVQEGYTCDCFDGYHLDTAKMTCVDVNECDELNNRMSLCKNAKCINTDGSYKCLCLPGYVPSDKPNYCTPLNTALNLEKDSDLE | binds |

From paper PMC4243959, “Sequestration of latent TGF-β binding protein 1 into CADASIL-related Notch3-ECD deposits” (Acta Neuropathologica Communications, 2014)
